US20230039401A1 (ATYR PHARMA, published 2023)

Tests used:
[1] = target: T1, NRP2-Fc (R&D Systems #2215-N2) (human, UniProt O60462 23-864, limits assumed); experiment: SPR, GARS Fc-WHEP immobilised, 20 nM NRP2 as analyte
T1 construct: Bought reagent; also called human NRP2; Neuropilin 2; not shown: Fc of the bought fusion

[2] = target: T1, NRP2-Fc (R&D Systems #2215-N2); experiment: SPR, WARS WHEP immobilised, 20 nM NRP2 as analyte
[3] = target: T1, NRP2-Fc (R&D Systems #2215-N2); experiment: SPR (column: Binding to NRP2 observed by SPR)
[4] = target: T2, NRP2a-GFP fusion protein on HEK293T cells (human, UniProt O60462 23-931); experiment: immunofluorescence microscopy, competition on HEK293T cells overexpressing NRP2v2-GFP, GFP Bright gate; VEGF-C titrated, competitor 175 nM Fc-HRS(2-60)/anti-Fc-PE
T2 construct: Transiently transfected HEK293T cells, fixed before staining; also called NRP2v2-GFP; cell-expressed NRP2a; not shown: GFP and any linker of the Origene clone
Protocol: HEK293T cells previously transfected with NRP2v2-GFP were passed the night before staining to 96 well Greiner Clear flat bottomed Microplates pre-coated with collagen coating solution. Supernatants were removed and cells were washed 1 time with binding buffer. Cells were then fixed with 50 μL of 3.7% methanol-free formaldehyde for 20 minutes at room temperature. Cells were washed 2× with binding buffer and then blocked with 100 μL of blocking buffer for 1 hour at room temperature. The cells were then washed one time with binding buffer and then incubated with 50 μL of staining complex overnight at 4 degrees Celsius. […] The Hoechst stain was replaced with 1×PBS and subsequently read on an IN Cell Analyzer 2200. 20× images were acquired and analyzed using In Cell Analyzer 1000 Workstation software. Segmentation of the cell mask was achieved using the GFP channel, and the average PE signal intensity was determined within this mask above a threshold intensity of 5000 (termed GFP Bright cells).

[5] = target: T1, NRP2-Fc (R&D Systems #2215-N2); experiment: SPR, MARS Fc-WHEP immobilised, 20 nM NRP2 as analyte

B1: GARS Fc-WHEP (Fc fusion, UniProt P41250 63-119, looked up)
chain: VLAPLRLAVRQQGDLVRKLKEDKAPQVDVDKAVAELKARKRVLEAKELALQPKDDIV
notes: domain: WHEP domain; also called Fc domain fused to the WHEP domain of GARS; not shown: Fc domain
- binding result [1]: no binding (tested: 20 nM)

B2: WARS WHEP (other, UniProt P23381 8-64, looked up)
chain: SLLELFNSIATQGELVRSLKAGNASKDEIDSAVKMLVSLKMSYKAAAGEDYKADCPP
notes: domain: WHEP domain; also called WHEP domain of WARS with a V5/His tag; not shown: V5/His tag
- binding result [2]: no binding (tested: 20 nM)

B3: VEGF-A145 (R&D Systems #7626-VE-CF) (ligand, human, UniProt P15692-6 27-171, looked up)
chain: APMAEGGGQNHHEVVKFMDVYQRSYCHPIETLVDIFQEYPDEIEYIFKPSCVPLMRCGGCCNDEGLECVPTEESNITMQIMRIKPHQGQHIGEMSFLQHNKCECRPKKDRARQEKKSVRGKGKGQKRKRKKSRYKSWSVCDKPRR
- binding result [3]: no binding

B4: Recombinant Human VEGF-C Protein (R&D Systems cat 2179-VC-025/CF) (ligand, UniProt P49767 103-227, looked up)
chain: TEETIKFAAAHYNTEILKSIDNEWRKTQCMPREVCIDVGKEFGVATNTFFKPPCVSVYRCGGCCNSEGLQCMNTSTSYLSKTLFEITVPLSQGPKPVTISFANHTSCRCMSKLDVYRQVHSIIRR
notes: Reagent of the cell immunofluorescence assay; Its catalogue number differs from that of the SPR reagent
- IC50 (read off the curve) [4]: ~2 nM

B5: VEGF-A121 (Peprotech #100-20A) (ligand, human, UniProt P15692-9 27-147, looked up)
chain: APMAEGGGQNHHEVVKFMDVYQRSYCHPIETLVDIFQEYPDEIEYIFKPSCVPLMRCGGCCNDEGLECVPTEESNITMQIMRIKPHQGQHIGEMSFLQHNKCECRPKKDRARQEKCDKPRR
- binding result [3]: no binding

B6: MARS Fc-WHEP (Fc fusion, UniProt P56192 841-897, looked up)
chain: QIQALMDEVTKQGNIVRELKAQKADKNEVAAEVAKLLDLKKQLAVAEGKPPEAPKGK
notes: domain: WHEP domain; also called Fc domain fused to the WHEP domain of MARS; not shown: Fc domain
- binding result [5]: no binding (tested: 20 nM)
